Data reported in patent US20230265179A1 (TWIST BIOSCIENCE, published 2023).

T1: IL1RL1 (UniProt Q01638 19-328, limits assumed)
T1 construct: SPR analyte
T1 sequence (looked up): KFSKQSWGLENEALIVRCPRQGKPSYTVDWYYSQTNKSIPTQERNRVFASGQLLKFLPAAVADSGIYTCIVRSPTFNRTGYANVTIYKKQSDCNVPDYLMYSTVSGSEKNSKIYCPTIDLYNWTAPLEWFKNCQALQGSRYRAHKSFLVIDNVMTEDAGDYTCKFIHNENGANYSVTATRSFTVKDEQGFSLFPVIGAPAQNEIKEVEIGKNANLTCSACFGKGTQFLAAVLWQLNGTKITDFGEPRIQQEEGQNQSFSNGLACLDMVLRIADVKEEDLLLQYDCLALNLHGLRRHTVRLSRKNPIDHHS

T2: IL1RL1 over-expressed on Expi293 cells (UniProt Q01638 19-556, limits assumed)
T2 construct: whole, on cells; Target of the flow cytometry MFI ratio (over-expressing cells over parent cells); also called cytokine over-expressing Expi293 cells
T2 sequence (looked up): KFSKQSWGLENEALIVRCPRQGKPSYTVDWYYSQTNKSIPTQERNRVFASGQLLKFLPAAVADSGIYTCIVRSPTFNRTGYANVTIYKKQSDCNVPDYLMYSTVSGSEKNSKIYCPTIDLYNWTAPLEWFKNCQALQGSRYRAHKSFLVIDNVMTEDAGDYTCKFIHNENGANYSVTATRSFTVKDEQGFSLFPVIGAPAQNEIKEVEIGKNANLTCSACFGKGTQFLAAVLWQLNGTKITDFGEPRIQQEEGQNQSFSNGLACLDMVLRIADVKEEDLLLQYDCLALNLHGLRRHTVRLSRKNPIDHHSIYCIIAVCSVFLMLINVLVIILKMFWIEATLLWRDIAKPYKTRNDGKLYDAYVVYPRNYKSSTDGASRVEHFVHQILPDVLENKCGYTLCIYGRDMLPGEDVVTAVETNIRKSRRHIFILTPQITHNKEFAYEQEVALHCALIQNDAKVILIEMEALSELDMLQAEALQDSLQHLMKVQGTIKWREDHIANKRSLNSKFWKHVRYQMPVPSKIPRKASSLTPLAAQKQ

T3: IL1RL1 (UniProt Q01638 19-556, limits assumed)
T3 construct: whole, on cells; The flow cytometry used 'cytokine over-expressing Expi293 cells' against Expi293 parent cells
T3 sequence (looked up): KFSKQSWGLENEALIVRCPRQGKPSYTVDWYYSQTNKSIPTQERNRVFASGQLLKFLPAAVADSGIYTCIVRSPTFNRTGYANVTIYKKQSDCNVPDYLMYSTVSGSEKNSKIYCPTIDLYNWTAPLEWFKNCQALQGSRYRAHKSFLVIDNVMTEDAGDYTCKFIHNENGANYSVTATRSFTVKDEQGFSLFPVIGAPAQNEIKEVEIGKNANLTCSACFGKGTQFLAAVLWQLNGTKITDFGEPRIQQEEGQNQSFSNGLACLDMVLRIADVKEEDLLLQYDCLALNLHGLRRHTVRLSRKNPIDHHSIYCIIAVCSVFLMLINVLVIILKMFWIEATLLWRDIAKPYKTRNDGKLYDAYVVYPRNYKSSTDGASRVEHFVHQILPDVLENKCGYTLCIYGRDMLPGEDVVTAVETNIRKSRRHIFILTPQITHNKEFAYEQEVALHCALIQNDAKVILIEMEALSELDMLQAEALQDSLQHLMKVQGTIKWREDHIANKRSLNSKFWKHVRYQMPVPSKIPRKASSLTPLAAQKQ

B1: IL1RL1-37 (Fc fusion, not shown: a dimerising Fc or GST)
VHH: EVQLVESGGGLVQPGGSLRLSCAASGGTFGSYAMGWFRQAPGKEREFVAAINWSGARTYYADSVKGRFTISADNSKNTAYLQMNSLKPEDTAVYYCAVSQPLNYYTYYDARRYDWGQGTLVTVSS
notes: VHH-Fc on IgG2 Fc
B2: IL1RL1-42 (Fc fusion, not shown: a dimerising Fc or GST)
VHH: EVQLVESGGGLVQPGGSLRLSCAASGFILDYYAMGWFRQAPGKEREWVSSIGIAGTPTFYADSVKGRFTISADNSKNTAYLQMNSLKPEDTAVYYCAGRLSNGLDWGQGTLVTVSS
notes: VHH-Fc on IgG2 Fc
B3: IL1RL1-51 (Fc fusion, not shown: a dimerising Fc or GST)
VHH: EVQLVESGGGLVQPGGSLRLSCAASGVTLDLYAMGWFRQAPGKEREWVSSIGIAGTPTFYADSVKGRFTISADNSKNTAYLQMNSLKPEDTAVYYCAANYGGSVLYNWGQGTLVTVSS
notes: VHH-Fc on IgG2 Fc
B4: IL1RL1-43 (Fc fusion, not shown: a dimerising Fc or GST)
VHH: EVQLVESGGGLVQPGGSLRLSCAASGRTYAMGWFRQAPGKEREWVASISTSGSTITPYADSVKGRFTISADNSKNTAYLQMNSLKPEDTAVYYCAANVASGLKILQWGQGTLVTVSS
notes: VHH-Fc on IgG2 Fc
B5: IL1RL1-48 (Fc fusion, not shown: a dimerising Fc or GST)
VHH: EVQLVESGGGLVQPGGSLRLSCAASGTTFSSDVMGWFRQAPGKERELVAVIIDSRTTKYADSVKGRFTISADNSKNTAYLQMNSLKPEDTAVYYCAAVGGATTVTASEWDWGQGTLVTVSS
notes: VHH-Fc on IgG2 Fc
B6: IL1RL1-77 (Fc fusion, not shown: a dimerising Fc or GST)
VHH: EVQLVESGGGLVQPGGSLRLSCAASGRTFSSYVMGWFRQAPGKEREFVAVIIDSRTTKYADSVKGRFTISADNSKNTAYLQMNSLKPEDTAVYYCAAVGGATTVTASEWDWGQGTLVTVSS
notes: VHH-Fc on IgG2 Fc
B7: IL1RL1-388 (antibody, V domains shown)
VH: EVQLLESGGGLVQPGGSLRLSCAASGFTFSRFAMSWVRQAPGKGLEWVSGISGSSGNTYYADSVKGRFTISRDNSKNTLYLQMNSLRAEDTAVYYCAREKRLPIRRRSGEPLGNYFDYWGQGTLVTVSS
VL: DIQMTQSPSSLSASVGDRVTITCRTSQSIRKYLNWYQQKPGKAPKLLIYASSRLQSGVPSRFSGSGSGTDFTLTISSLQPEDFATYYCQQNYRTPFTFGGGTKVEIK
B8: IL1RL1-41 (Fc fusion, not shown: a dimerising Fc or GST)
VHH: EVQLVESGGGLVQPGGSLRLSCAASGGTLSSYIMGWFRQAPGKEREGVAAIDSDGSTSYADSVKGRFTISADNSKNTAYLQMNSLKPEDTAVYYCAARPVRVDDISLPVGFDWGQGTLVTVSS
notes: VHH-Fc on IgG2 Fc

How the values were obtained:
IL1RL1 [1] = biological target: T1, IL1RL1; test: SPR (Carterra LSA), antibody amine-coupled
Experimental: SPR experiments were performed on a Carterra LSA SPR biosensor equipped with a HC30M chip at 25° C. in HBS-TE. Antibodies were diluted to 10 μg/mL and amine-coupled to the sensor chip by EDC/NHS activation, followed by ethanolamine HCl quenching. Increasing concentrations of analyte were flowed over the sensor chip in HBS-TE with 0.5 mg/mL BSA with 5-minute association and 15-minute dissociation. Following each injection cycle the surface was regenerated with 2× 30-second injections of IgG elution buffer (Thermo). Data were analyzed in Carterra's Kinetics Tool software with 1:1 binding model.

[2] = biological target: T2, IL1RL1 over-expressed on Expi293 cells; test: flow cytometry, 100 nM antibody, over-expressing Expi293 / parent cells
Experimental: (§1) All incubations and washes were in buffer containing PBS+1% BSA. MFI Ratio is defined by the mean fluorescence intensity (MFI) of the cytokine over-expressing Expi293 cell over the Expi293 parent cell. […] EC50 was calculated in GraphPad Prism.

IL1RL1 [3] = biological target: T3, IL1RL1; test: flow cytometry, 100 nM IgG on IL1RL1 over-expressing Expi293 cells; MFI over that of Expi293 parent cells
Experimental: as §1

Row | Binder | binding result (IL1RL1 [1]) | 100 nM FACS (MFI Ratio) [2] | 100 nM FACS (MFI Ratio) (IL1RL1 [3])
1 | B1 | no binding | 1.25 MFI ratio | –
2 | B2 | no binding | 0.86 MFI ratio | –
3 | B3 | no binding | 1.28 MFI ratio | –
4 | B4 | no binding | 1.25 MFI ratio | –
5 | B5 | no binding | 1.06 MFI ratio | –
6 | B6 | no binding | 1.12 MFI ratio | –
7 | B7 | – | – | 0.73 MFI ratio
8 | B8 | no binding | 0.55 MFI ratio | –
